Several values for one entry are separate records, joined by “and”; a condition that tells them apart may be missing. Equal values may be shown once. Read-outs that look alike come from different tables or passages of the source.
What was measured:
[1] = test system: pancreatic, cervical and lung cancer
Method: The administered dose was 55.5–96.2MBq (1.5–2.6 mCi). The scan (6 bed positions, 2 min bed^−1) covered an area that included the top of the skull to the middle of the femur. OSEM was applied for reconstruction. […] The CT scan (140 kV, 35 mA, pitch of 1:1, layer of 5 mm thickness; layer spacing of 3 mm, 512*512 matrix, field of view of 70 cm) also covered the top of the skull to the middle of the femur. […] Immediately upon completion of the first scan, the second whole-body static PET data was acquired. Sequentially, multiple whole-body static PET scans were acquired, one by one, from 0 to 75 min.
Upon co-registration of the PET and CT images, the CT images were used to determine regions of interest for the organs or tissues reported in the manuscript. These ROIs were applied to the PET images of the brain, pituitary gland, breast, lower and upper large intestine, small intestine, stomach, pancreas, heart wall, liver, lung, muscle, red marrow, bone, skin, and thyroid gland. For high uptake organs such as the kidneys, bladder and for the whole body, threshold-based segmentation of PET images were used to determine a close-fitting ROI around the entire organ or whole body. In order to determine accuracy, these PET-derived ROIs were compared to the CT overlay for a close match.

[2] = test system: integrin αvβ6-positive A431 xenografts; assay: Static small animal PET, integrin αvβ6-positive tumor model; type: in vivo, mouse
Excerpt: (§1) Eight planes were acquired in the coronal section.
(§2) Supplementary Figure 5. [18F]FP-R01-MG-F2 Static PET Imaging. (A) Representative PET images of nu/nu mice bearing in integrin αvβ6-positive A431 xenografts (left) and integrin αvβ6-negative 293 xenograft (right) models following injection of […] [18F]FP-R01-MG-F2. Location of tumor and kidneys are indicated by the letters T and K.

[3] = as above; type: in vivo, mouse; details: female, athymic nude (Nu/Nu), mouse, in vivo, iv, 100 uCi, total radioactivity, PET, 1 h p.i., average ± SD, n = 3
Excerpt: as §1, §2

[4] = test system: integrin αvβ6-positive A431 xenografts; assay: as above; type: in vivo, mouse; details: microPET 1 hr, individual mice, listed as Ro1-MG NODAGA Ga-68
[5] = 49 min p.i., one patient, Fig 4C
[6] = 61 min p.i., one patient, Fig 4C
[7] = microPET 1 hr, individual mice, listed as Ro1-MG NODAGA Ga-68

With `CC[C@H](C)[C@@H]1NC(=O)[C@@H](NC(=O)CNC(=O)CCC(C(=O)O)N2CCN(CC(=O)O)CCN(CC(=O)O)CC2)CSSC[C@@H]2NC(=O)[C@H](C)NC(=O)CNC(=O)[C@@H]3CCCN3C(=O)[C@@H]3CSSC[C@@H](C(=O)NCC(N)=O)NC(=O)[C@H](Cc4ccc(O)cc4)NC(=O)CNC(=O)[C@H](CC(N)=O)NC(=O)CNC(=O)[C@H](CCCNC(=N)N)NC(=O)[C@H](CSSC[C@H](NC(=O)[C@H](CCCNC(=N)N)NC(=O)[C@H](Cc4ccccc4)NC(=O)[C@H](CC(C)C)NC(=O)[C@H](CC(C)C)NC(=O)[C@H]([C@@H](C)O)NC(=O)CNC(=O)[C@H](CC(C)C)NC(=O)[C@H](CC(=O)O)NC(=O)[C@H]([C@@H](C)O)NC(=O)[C@H](CCCNC(=N)N)NC(=O)CNC(=O)[C@H](CC(N)=O)NC(=O)[C@H](CC(C)C)NC1=O)C(=O)N[C@@H](CCCNC(=N)N)C(=O)N[C@@H](CCCNC(=N)N)C(=O)N[C@@H](CC(=O)O)C(=O)N[C@@H](CO)C(=O)N[C@@H](CC(=O)O)C(=O)N3)NC(=O)[C@H]([C@@H](C)CC)NC2=O` (some centres unmarked) [[^68Ga]NODAGA-R01-MG, metal not drawn] the “ROI uptake Bn (osteogenic cells)” value [1, 5] was 0.4088, the “ROI uptake Br (brain)” value [1, 5] was 0.04004 and the “ROI uptake Brs (breast)” value [1, 5] was 0.5978. The “ROI uptake HC (heart contents)” value [1, 5] was 0.5978, the “ROI uptake HW (heart wall)” value [1, 5] was 0.3526 and the “ROI uptake LLI (lower large intestine)” value [1, 5] was 1.426. For the same molecule, the “ROI uptake Ln (lung)” value [1, 5] was 0.3066, the “ROI uptake Lv (liver)” value [1, 5] was 0.6029 and the “ROI uptake Ms (muscle)” value [1, 5] was 0.7154. For the same molecule, the “ROI uptake Pn (pancreas)” value [1, 5] was 0.9657, the “ROI uptake Pt (pituitary gland)” value [1, 5] was 2.212 and the “ROI uptake RM (red marrow)” value [1, 5] was 0.1942. For the same molecule, the “ROI uptake SI (small intestine)” value [1, 5] was 6.546, the “ROI uptake Sk (skin)” value [1, 5] was 0.07665 and the “ROI uptake Sp (spleen)” value [1, 5] was 0.373. For the same molecule, the “ROI uptake St (stomach)” value [1, 5] was 2.34, the “ROI uptake TB (total body)” value [1, 5] was 0.6949 and the “ROI uptake Tm (thymus)” value [1, 5] was 0.5876. For the same molecule, the “ROI uptake Tr (thyroid)” value [1, 5] was 0.5416, the “ROI uptake ULI (upper large intestine)” value [1, 5] was 1.661 and the “ROI uptake Bl (bladder)” value [1, 6] was 9.011. For the same molecule, the “ROI uptake Bn (osteogenic cells)” value [1, 6] was 0.8028, the “ROI uptake Br (brain)” value [1, 6] was 0.04398 and the “ROI uptake Brs (breast)” value [1, 6] was 0.7155. The “ROI uptake HC (heart contents)” value [1, 6] was 0.5817, the “ROI uptake HW (heart wall)” value [1, 6] was 0.3897 and the “ROI uptake LLI (lower large intestine)” value [1, 6] was 1.338. For the same molecule, the “ROI uptake Ln (lung)” value [1, 6] was 0.3258, the “ROI uptake Lv (liver)” value [1, 6] was 0.6399 and the “ROI uptake Ms (muscle)” value [1, 6] was 0.9889. The “ROI uptake Pn (pancreas)” value [1, 6] was 1.129, the “ROI uptake Pt (pituitary gland)” value [1, 6] was 2.048 and the “ROI uptake RM (red marrow)” value [1, 6] was 0.07562. The “ROI uptake SI (small intestine)” value [1, 6] was 6.597, the “ROI uptake Sk (skin)” value [1, 6] was 0.1047 and the “ROI uptake Sp (spleen)” value [1, 6] was 0.4654. For the same molecule, the “ROI uptake St (stomach)” value [1, 6] was 2.513, the “ROI uptake TB (total body)” value [1, 6] was 0.5643 and the “ROI uptake Tm (thymus)” value [1, 6] was 0.5119. The “ROI uptake Tr (thyroid)” value [1, 6] was 0.4479, the “ROI uptake ULI (upper large intestine)” value [1, 6] was 1.478 and the “Bl, PET uptake, Average” value ([1]; Average of patients, 29-60 min) was 25.3728. The “Bn, PET uptake, Average” value ([1]; Average of patients, 29-60 min) was 0.4809, the “Br, PET uptake, Average” value ([1]; Average of patients, 29-60 min) was 0.09236 and the “Brs, PET uptake, Average” value ([1]; Average of patients, 29-60 min) was 0.4271. The “CA, PET uptake, Average” value ([1]; Average of patients, 29-60 min) was 4.033, the “HC, PET uptake, Average” value ([1]; Average of patients, 29-60 min) was 0.8404 and the “HW, PET uptake, Average” value ([1]; Average of patients, 29-60 min) was 0.6923. The “LLI, PET uptake, Average” value ([1]; Average of patients, 29-60 min) was 1.574, the “Ln, PET uptake, Average” value ([1]; Average of patients, 29-60 min) was 0.4315 and the “Lv, PET uptake, Average” value ([1]; Average of patients, 29-60 min) was 0.7253. The “Ms, PET uptake, Average” value ([1]; Average of patients, 29-60 min) was 0.5597, the “Pn, PET uptake, Average” value ([1]; Average of patients, 29-60 min) was 1.617 and the “Pt, PET uptake, Average” value ([1]; Average of patients, 29-60 min) was 3.247. The “RM, PET uptake, Average” value ([1]; Average of patients, 29-60 min) was 0.2168, the “SI, PET uptake, Average” value ([1]; Average of patients, 29-60 min) was 7.061 and the “Sk, PET uptake, Average” value ([1]; Average of patients, 29-60 min) was 0.1123. For the same molecule, the “Sp, PET uptake, Average” value ([1]; Average of patients, 29-60 min) was 0.4371, the “St, PET uptake, Average” value ([1]; Average of patients, 29-60 min) was 8.975 and the “TB, PET uptake, Average” value ([1]; Average of patients, 29-60 min) was 0.841. The “Tm, PET uptake, Average” value ([1]; Average of patients, 29-60 min) was 0.6358, the “Tr, PET uptake, Average” value ([1]; Average of patients, 29-60 min) was 1.023 and the “ULI, PET uptake, Average” value ([1]; Average of patients, 29-60 min) was 1.719. For the same molecule, the adverse reactions ([1]; ~2 mCi i.v., ~1 h p.i., lasted about an hour, disappeared without treatment) was “One patient reported nausea and vertigo”, the Muscle ([2]; PET, 1 h p.i., average ± SD, n = 3) was 0.6 ± 0.1 %ID g^−1 and the Kidney [2, 7] was 34.6175 and 26.042 and 24.5731 and 34.9763. For the same molecule, the Muscle [2, 7] was 0.5495 and 0.6119 and 0.4496 and 0.7461, the tissue uptake at 1 h ([3]; αvβ6 (+), read-out: Tumor) was 2.78 ± 0.3 %ID/g and the tissue uptake at 1 h ([3]; read-out: Kidney) was 30.1 ± 5.51 %ID/g. The tissue uptake at 1 h ([3]; read-out: Liver) was 1.2 ± 0.35 %ID/g, the tissue uptake at 1 h ([3]; read-out: Muscle) was 0.589 ± 0.124 %ID/g and the tissue to tissue ratio at 1 h ([3]; read-out: T:M Ratio (tumor-to-muscle)) was 4.86 ± 1.04. The “Tumor avb6(+)” value ([4]; source data of Table 3) was 3.142 and 2.463 and 2.614 and 2.906 and the Liver [4] was 0.7389 and 1.216 and 1.257 and 1.6013.

Reference: article PMC6791878, “Evaluation of integrin αvβ6 cystine knot PET tracers to detect cancer and idiopathic pulmonary fibrosis” (Nature Communications, 2019)
